According to IntAct's records for PubMed 18772112:

B1: Catenin beta-1 (Homo sapiens), P35222 (parent)
chain: MATQADLMELDMAMEPDRKAAVSHWQQQSYLDSGIHSGATTTAPSLSGKGNPEEEDVDTSQVLYEWEQGFSQSFTQEQVADIDGQYAMTRAQRVRAAMFPETLDEGMQIPSTQFDAAHPTNVQRLAEPSQMLKHAVVNLINYQDDAELATRAIPELTKLLNDEDQVVVNKAAVMVHQLSKKEASRHAIMRSPQMVSAIVRTMQNTNDVETARCTAGTLHNLSHHREGLLAIFKSGGIPALVKMLGSPVDSVLFYAITTLHNLLLHQEGAKMAVRLAGGLQKMVALLNKTNVKFLAITTDCLQILAYGNQESKLIILASGGPQALVNIMRTYTYEKLLWTTSRVLKVLSVCSSNKPAIVEAGGMQALGLHLTDPSQRLVQNCLWTLRNLSDAATKQEGMEGLLGTLVQLLGSDDINVVTCAAGILSNLTCNNYKNKMMVCQVGGIEALVRTVLRAGDREDITEPAICALRHLTSRHQEAEMAQNAVRLHYGLPVVVKLLHPPSHWPLIKATVGLIRNLALCPANHAPLREQGAIPRLVQLLVRAHQDTQRRTSMGGTQQQFVEGVRMEEIVEGCTGALHILARDVHNRIVIRGLNTIPLFVQLLYSPIENIQRVAAGVLCELAQDKEAAEAIEAEGATAPLTELLHSRNEGVATYAAAVLFRMSEDKPQDYKKRLSVELTSSLFRTEPMAWNETADLGLDIGAQGEPLGYRQDDPSYRSFHSGGYGQDALGMDPMMEHEMGGHHPGADYPVDGLPDLGHAQDLMDGLPPGDSNQLAWFDTDL

Variants of: B1
Settings: with runx3_human RUNX3, Q13761
Sequence of runx3_human RUNX3, Q13761 (Q13761 whole entry): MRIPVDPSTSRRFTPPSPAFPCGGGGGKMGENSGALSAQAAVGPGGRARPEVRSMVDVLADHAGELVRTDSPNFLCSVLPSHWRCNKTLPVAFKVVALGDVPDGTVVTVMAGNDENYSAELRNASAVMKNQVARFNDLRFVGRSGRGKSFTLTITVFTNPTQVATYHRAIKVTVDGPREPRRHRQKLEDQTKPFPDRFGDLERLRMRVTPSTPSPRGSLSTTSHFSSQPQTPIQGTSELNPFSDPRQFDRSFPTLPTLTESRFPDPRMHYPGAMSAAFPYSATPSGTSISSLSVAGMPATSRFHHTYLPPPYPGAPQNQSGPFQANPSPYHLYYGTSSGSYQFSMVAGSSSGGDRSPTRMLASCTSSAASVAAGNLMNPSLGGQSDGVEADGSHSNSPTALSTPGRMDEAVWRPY

Variant	effect of a mutation on the interaction
S33Y	increasing interaction
